Assay: soluble on expression in E. coli; label from the status in PepcDB or PDB records

| Sequence | soluble on expression in E. coli |
| --- | --- |
| MAYVESFYMDASLESDADVLPASESDMFEAQFIADVPLDGDAIIRIVDSQLAFEQRNHVVSDYCTMKAAELEKNPNQLTMNSSVMDNQQYFAPPKSESSQYAWNTNDVVSSHHQYAAQSPNIYTNDYHTSEPSDYAYI | not soluble |
| MCDKSKTVLDYTIEFLDKYIPEWFETGNKCPLFIFFSGPQGSGKSFTSIQIYNHLMEKYGGEKSIGYASIDDFYLTHEDQLKLNEQFKNNKLLQGRGLPGTHDMKLLQEVLNTIFNNNEHPDQDTVVLPKYDKSQFKGEGDRCPTGQKIKLPVDIFILEGWFLGFNPILQGIENNDLLTGDMVDVNAKLFFYSDLLWRNPEIKSLGIVFTTDNINNVYGWRLQQEHELISKVGKGMTDEQVHAFVDRYMPSYKLYLNDFVRSESLGSIATLTLGIDSNRNVYSTKTRCIE | soluble |
| MCGRFAYIASYDKLKYQFHLANAIEVPPRFNISPGADVLCLVETDGHKIQCVLLRWGFIPSWATDRKKLGNLINARAETVFEKPTFRQSIKSKRCLIPMSGFYEWRQEDGVKQPYFFQKKNHDLLAVAAIRDTWQQSDEVIHSCCLITTDANAFMQPVHNRMPVILGEEAQAIWLNNTQYDKAQLMALMKPYPYEDLEGYRVTTLVNKANFDHPLAMEPLSELEHHHHHH | soluble |
| MCGRIAQKSAPEDYVEILWPNARLIFDDVAGPRYNIPPGTKPLTMHRLAGGFEVDRQWWTWRPSGSKYAMNCARLDKILGNKWPWKLLTARGRILVPADGWYEWKALDSSPKPAKQPYFIHGAGPLLFAGLSAWRPGAEMDEAHGFAIVTDDAQGGMVDVHDRRPVALPPELAREWVDPATPVARAMEILRAGLPETAFSWHPVRQEVGSSKYQLPDAIDPILEHHHHHH | soluble |
| MCIHTIPYYSAKRRRIMDNQFFKNIEKKTGVKMQDVMNLAGSLQNANFKDENTVRSVINRVAQMANRRVPKELEDKIVESITSGKEKLDFGTISKMMDNKLEHHHHHH | not soluble |
| MCIIKPMDDVVKFIHEVGSLKLTPRSGWLKLGIRLPESVAEHSFRAAIIAFILALKSGESVEKACKAATAALFHDLHEARTMDLHKIARRYVSCDEEGAREEQLSWMESKPDFSDVEVYVSDADKLELAFQGVEYSQQVSYAIRFAENVELKTDAAKEIYRVLMERKNPVWWR | soluble |
| MCLVALAWKTHPRWRLLLAGNRDEFHERPTAPLAQWAAPAERVLAGRDLRSGGSWVGLGLDGRAAVVTNVRDPLATASGRSRGHLIADYLSGSADAATYARELAAAGQEFPPFNLLLCDAERCEHLSNHPALARALAPGIHGMSNGPLDAHWPKTTALTHALAAWCDSGSDDLQPLWTALANPATAADADLPHTGVDRATERLLSAAFIRGASYGTRASTIVAVDHHGHGFIHERRFGPDGVFQGETRLDVAGMHLEHHHHHH | not soluble |
| MCLVKDKLKDIISVKSALSFSLKGDFDCPLEENSLFKALQILKNFLKSKNFSHSVIKSLDTLAIEVEKNIPTQAGLGGGSTDAGGLLYHLNQIFDWRLSLEELYSMGSLVGADTNFFISQYKSTNATSYGEVIENFEEEPLENRLEIYAPNHVFCSTKAVYQAYKPETCFSQAKEWLKKPSLECLKTYDRNGLNDLLKPALLTNQALKDIESELGKEWFFSGSGSAFFRLKPMQKGGELEHHHHHH | not soluble |
| MCMGIFKRVSNMVKAKVNNTLDEMENPIELLDQKIRDMEESLNKAKISSAQILGNAHEIEKKLQKARLESEDYDSKVKLAVKNGNDDLAKRALERKLDADKRESLQKSYEDASQKSKVIKDKLRTLEEEIEKTRAYRDEAAARFNNAEATKKVNEVLSNVDTGSNSINLDDIERKIERKEAMAEGLGDLRNEDSLEKEFEKLNETNLDDELAKYKNNIKLEHHHHHH | soluble |
| MCMKQSLFGRVRDAILADFHNVLDEKERKNPIAMLNQYLRDSEREITKIEKLIQRHKTLKSNFARELEQARYFVNKRSKQALIAQEAGELQLHERALEEVAYYEGQVTRLEEMYAGVVEQIDELERRLSEMKNKLKEMHAKRMELMARENMAHANRRMNTAMHKMDENNPFLRFEEIEEHIRDLETRMNEEHERDTFDMKIAKLEREMKEKNDVSLTKELTKLEHHHHHH | not soluble |
| MCPEFQRKAAGAPRMGAMLARCVLTAALALQAAAAARAVEIEIGVASRGVVDGLEFVQFSADERTMATTHWGNVVHLWDLKTLRVRSSVSVANRDFDFDLSPDGRALAVWNEEGKGEIELYDTDNGQPARALPAPRLPQGESRRGRSLVYRDDGTLEFVSHGWIGGHARKAYLLAVPAGQPRAAETPLPALVNSVAFRKSAVMDQGRLLLAGVDGADDELAIMDIASGRMLAREPGFRIASYAADARRAVFVEADGKQRILAFDFSSRSLSTLPRWTGSGKFQPYRFVAGTRFLVLAPDEPDASTRRAAPGIYDLQTRRLHRLPPDADPGSIDVWGATASYVLCNPDHTACQAEVADLAISRKLGTFAVQPSADFRTWISPSGSMVVVGGADDGTMMVWSVKEQRVIGPNLEHHHHHH | not soluble |
| MCSDVVAGDLNDLRIAALNLGKMSELYTNGAFVLGIAQGADTETYGRPHEWWSYVEQQLATALRFTYDRLNDGQEALLAAIDAYAYVDGDNAKGLTDVGKEYKEYISNPNNVGDEKYYDPPPLHTMVDAPDLGDKPEGWEEKYDG | not soluble |
| MCTDHQWINSAIRKIEADYQRSADTHLIKLDLPCVSGVDIYLKDESTHPTGSLKHRLARSLFLYGLCNGWIGPETTIIESSSGSTAVSEAYFARLLGLPFIAVMPKCTARKKIEQIQFYGGKAHLVDRSDQIYAESHRLAKELKGHYMDQFTYAERATDWRGNSNIADSIFSQMQMEQHPVPSWIVMSPGTGGTSATIGRFIRYQQYNTKLCVVDPENSVFYDYYRTRNAELTRDCGSKIEGIGRPRVEPSFIPDVVDEMRAIPDAASVATIYWLEKILGRKAGASTGTNLYGALQLACEMKRRGEQGSIVTLLCDSGERYLDTYYNSEWVKNNIGDLSKYLHKLETFSATGCLD | not soluble |
| MCVKVACVGGGPAGLYLSILLKRQDPAHDVTVYERDPEGSTYGWGVTYWRGLLDRLRELDPGSARAVEEHSVRWRDGVAHVGGLATRHHGDEGFGIGRHRLLAILAARARELGVRLEFEHPVTGANPPAADLVVAADGAGSALRTHHADHFGTEITGGRDHYVWLGTTKVFDAFTFAFVETDHGWIWAYGYGFGPEGSTCVVECAPGTWTGLGLDRADEAEGLGLLEKLFADVLDGHPLSARSSGRASAAWPVFRTLTNRTWSRDNLVLLGDAAHTTHYSIGAGTTLALEDAMALATALRERDTLPDALAHYERERRAALLPVQSAARLSAQWYENLPRYIHLPPEQMFALLGQRHSPLLPHLPPRLYYRIDRAAGRLETLRRVKRRLGPVIARTVQARRLAAGDGRARSGRPDAVPAHRGLEHHHHHH | not soluble |
| MDAKVAFSPHSDANGRLDEIGADIDTAQSSVLFSLAFLGQMTRGAIGPALGRALERPEVHVMGIADAEVRAGNLGLNVLTPDNRRRVVRAAALTGNVPPPFLTEPSGLAGVDGNQRGTRMHHKFVVLDFDKPTARVYLGSYNFSNPADDENGENLVVVRDRTVATSYMIEALRMYDHYVFRVLEHHHHHH | soluble |
| MDDATEQEVFNRMQMTQFEEKRFELRETCPKCHQILSSELSRLWHQFVHMDAYNGFLDGKFQIQLPDFEFVRSNVIPCPFSTCSLLFLDLIDARFHYLLEHQSCQLFCCGVRFSDYKTALEHLQGTGSVETEAWDQQKHFLKPVYICNCCNRTWSSRSEYVAHLHGRDHMCPDPVCKYIFETNEKCIRHFFEQHYKHLFLDSRHLLLNYKDHMCVPHVNADFGTTRGFRATWQARIVNFLIEKS | not soluble |
| MDDIIQQLFKEVERPQLTVNEQALQQYLYREIVRLTLLVEPTISKPQIIGLLSALVKKARHYVNADNQAECIQQLLDLVYQEWRFHCDYQEYFYTDNLLLHRVIRSHRGMPLSIGAIVLYLAAKLQLPIYPVNFPTQLILRAEITESSGKKTVRFINPWDGQFLPLELLLKWLEGEVGYGVELSPELLRRADPAELLERVETVFKMVLTREGKYEQTLRLIEYRLAENPDDPYEIRDRGMVLASMDCYQAAYDDLSYFIDQCPDDPSAAILKSEVKGLEQKSKQNQVHLEHHHHHH | soluble |
| MDDKKDNRHLSKPAYREECTGDTERSTTAYMDILEDVSTGSTSKLPLEAKFVKISNNISEKENLPKEKEIGGVKGLEPTRYGDWQHKGKVTDF | soluble |
